Source: patent publication US20230302104A1, “TREATMENT AND/OR PREVENTION OF A DISEASE OR A SYNDROME RELATED TO A VIRUS INFECTION” (priority 2020, published 2023)

Legend:
furin [1] = target: T1, furin (Homo sapiens, UniProt P09958); conditions: Jean et al. 1998; cited from earlier work
T1 construct: purchased NEB

matriptase = target: T2, matriptase (Homo sapiens, UniProt Q9Y5Y6); format: biochemical; conditions: 45 min
T2 construct: purchased R&D Systems
T2 sequence (Q9Y5Y6 1-855): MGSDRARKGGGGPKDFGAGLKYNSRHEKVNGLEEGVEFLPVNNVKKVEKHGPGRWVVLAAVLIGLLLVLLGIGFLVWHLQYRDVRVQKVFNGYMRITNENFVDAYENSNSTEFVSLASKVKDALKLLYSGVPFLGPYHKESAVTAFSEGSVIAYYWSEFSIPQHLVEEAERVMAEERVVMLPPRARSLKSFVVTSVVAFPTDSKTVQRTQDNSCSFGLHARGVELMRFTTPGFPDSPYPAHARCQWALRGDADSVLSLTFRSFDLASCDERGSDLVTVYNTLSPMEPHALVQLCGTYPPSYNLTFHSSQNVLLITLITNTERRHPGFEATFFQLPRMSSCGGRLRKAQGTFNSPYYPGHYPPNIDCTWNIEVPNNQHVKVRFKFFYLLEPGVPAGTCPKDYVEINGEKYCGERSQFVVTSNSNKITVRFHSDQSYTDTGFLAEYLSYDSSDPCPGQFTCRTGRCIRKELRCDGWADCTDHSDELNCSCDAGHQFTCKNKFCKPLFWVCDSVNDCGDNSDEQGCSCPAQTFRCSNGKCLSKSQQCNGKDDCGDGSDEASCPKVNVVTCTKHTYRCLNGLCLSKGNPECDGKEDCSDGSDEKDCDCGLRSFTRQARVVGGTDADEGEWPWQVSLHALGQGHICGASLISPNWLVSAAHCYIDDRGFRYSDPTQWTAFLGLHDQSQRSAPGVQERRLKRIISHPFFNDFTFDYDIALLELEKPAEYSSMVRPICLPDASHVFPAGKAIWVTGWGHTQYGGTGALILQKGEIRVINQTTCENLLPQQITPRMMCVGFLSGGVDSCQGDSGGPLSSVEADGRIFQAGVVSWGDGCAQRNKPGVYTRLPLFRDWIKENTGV

trypsin = format: biochemical; conditions: 45 min
furin [2] = target: T1, furin; format: biochemical; conditions: 45 min
cathepsin L = target: T3, cathepsin L (Homo sapiens, UniProt P07711); format: biochemical; conditions: 45 min
T3 construct: purchased R&D Systems
T3 sequence (P07711 114-333): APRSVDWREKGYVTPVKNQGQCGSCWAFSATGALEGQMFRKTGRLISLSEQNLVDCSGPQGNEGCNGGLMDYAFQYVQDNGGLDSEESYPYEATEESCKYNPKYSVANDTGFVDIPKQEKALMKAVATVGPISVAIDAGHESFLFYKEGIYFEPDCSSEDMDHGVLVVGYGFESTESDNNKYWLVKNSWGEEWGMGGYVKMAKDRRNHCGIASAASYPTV

[3] = target: T4, elastase (ELA1) from pig pancreas (Sus scrofa, UniProt P00772); format: biochemical
T4 construct: elastase (ELA1) from pig pancreas 0.25U/mL; purchased molecular probes (Sigma-Aldrich) E-12056; host or cells: pig pancreas
T4 sequence (P00772 27-266): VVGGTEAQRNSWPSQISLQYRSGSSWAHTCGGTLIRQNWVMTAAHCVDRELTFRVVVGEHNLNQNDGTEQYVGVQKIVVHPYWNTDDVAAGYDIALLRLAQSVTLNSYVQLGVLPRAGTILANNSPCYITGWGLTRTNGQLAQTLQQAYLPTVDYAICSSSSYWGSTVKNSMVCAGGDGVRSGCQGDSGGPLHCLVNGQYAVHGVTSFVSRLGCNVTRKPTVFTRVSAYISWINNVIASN

cathepsin B = target: T5, cathepsin B (Homo sapiens, UniProt P07858); format: biochemical; conditions: 45 min
T5 construct: purchased R&D Systems

TMPRSS2 = target: T6, TMPRSS2 (Homo sapiens, UniProt O15393); format: biochemical; conditions: 45 min
T6 construct: purchased creative biomart
T6 sequence (O15393 whole entry): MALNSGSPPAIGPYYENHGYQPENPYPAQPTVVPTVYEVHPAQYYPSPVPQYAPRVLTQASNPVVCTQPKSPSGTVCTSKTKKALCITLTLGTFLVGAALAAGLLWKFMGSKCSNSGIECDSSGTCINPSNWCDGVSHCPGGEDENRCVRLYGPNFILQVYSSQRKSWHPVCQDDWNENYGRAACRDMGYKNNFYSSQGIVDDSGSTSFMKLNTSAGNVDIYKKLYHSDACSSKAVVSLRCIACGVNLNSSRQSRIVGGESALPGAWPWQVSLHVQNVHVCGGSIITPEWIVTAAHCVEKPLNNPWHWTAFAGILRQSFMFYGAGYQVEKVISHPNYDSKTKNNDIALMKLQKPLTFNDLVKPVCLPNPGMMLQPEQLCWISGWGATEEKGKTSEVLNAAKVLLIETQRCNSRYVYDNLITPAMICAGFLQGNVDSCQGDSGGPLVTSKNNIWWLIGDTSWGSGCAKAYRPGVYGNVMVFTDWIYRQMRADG

[4] = system: IFNγ-mediated activation of human microglial HMC3-MHCII^Luc cells; experiment: IFNγ-mediated microglial activation, MHCII-driven luciferase; format: cell-based; conditions: MHCII-driven luciferase normalized to cell viability, FIG. 19
[5] = system: MERS-CoV pseudovirus entry in Caco2 human colorectal adenocarcinoma cells; format: cell-based
PC1 = target: T7, PC1 (Homo sapiens, UniProt P29120); format: biochemical; conditions: 45 min
T7 construct: purchased R&D Systems
T7 sequence (P29120 111-753): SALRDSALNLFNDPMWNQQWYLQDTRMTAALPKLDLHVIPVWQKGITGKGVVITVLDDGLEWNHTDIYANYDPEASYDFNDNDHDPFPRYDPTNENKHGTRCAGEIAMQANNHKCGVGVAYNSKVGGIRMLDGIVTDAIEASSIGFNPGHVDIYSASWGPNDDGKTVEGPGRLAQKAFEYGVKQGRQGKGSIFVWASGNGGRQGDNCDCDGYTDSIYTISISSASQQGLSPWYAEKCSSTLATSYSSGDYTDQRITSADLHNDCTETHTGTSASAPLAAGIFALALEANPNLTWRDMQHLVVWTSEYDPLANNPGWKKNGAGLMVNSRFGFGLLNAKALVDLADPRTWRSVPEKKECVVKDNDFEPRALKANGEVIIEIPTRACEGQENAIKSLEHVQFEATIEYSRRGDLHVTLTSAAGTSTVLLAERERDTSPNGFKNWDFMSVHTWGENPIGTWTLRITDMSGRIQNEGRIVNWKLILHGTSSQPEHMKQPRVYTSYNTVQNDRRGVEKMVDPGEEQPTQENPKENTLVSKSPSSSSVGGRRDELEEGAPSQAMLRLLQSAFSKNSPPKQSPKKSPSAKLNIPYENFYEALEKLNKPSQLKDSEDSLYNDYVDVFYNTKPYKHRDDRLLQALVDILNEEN

[6] = system: ACE2/SARS-CoV-2 spike mediated cell fusion of HeLa cells; format: cell-based, human; conditions: 24 h
[7] = system: SARS-CoV-2 spike pseudotyped lentivirus entry in HeLa cells expressing ACE2 only; format: cell-based; conditions: 10 µM

T1 sequence (P09958 108-794): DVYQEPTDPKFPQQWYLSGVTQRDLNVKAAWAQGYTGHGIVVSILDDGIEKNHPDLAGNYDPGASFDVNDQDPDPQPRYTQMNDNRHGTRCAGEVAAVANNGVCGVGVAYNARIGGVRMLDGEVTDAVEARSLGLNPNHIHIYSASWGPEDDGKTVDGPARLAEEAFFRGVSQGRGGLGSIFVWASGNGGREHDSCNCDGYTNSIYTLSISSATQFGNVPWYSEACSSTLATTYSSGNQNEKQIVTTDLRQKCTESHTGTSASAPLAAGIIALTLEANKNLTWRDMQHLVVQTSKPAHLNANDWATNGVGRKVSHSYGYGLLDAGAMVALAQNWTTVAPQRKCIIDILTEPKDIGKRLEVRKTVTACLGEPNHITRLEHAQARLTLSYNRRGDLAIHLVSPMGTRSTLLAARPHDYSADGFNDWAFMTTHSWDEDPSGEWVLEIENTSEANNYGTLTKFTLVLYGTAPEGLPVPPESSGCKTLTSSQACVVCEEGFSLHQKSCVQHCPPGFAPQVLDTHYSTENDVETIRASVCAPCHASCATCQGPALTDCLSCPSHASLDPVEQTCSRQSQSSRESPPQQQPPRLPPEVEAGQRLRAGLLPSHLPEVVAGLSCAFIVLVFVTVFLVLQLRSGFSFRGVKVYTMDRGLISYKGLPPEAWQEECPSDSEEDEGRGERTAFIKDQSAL

Substance | activity on furin (furin [1]) | matriptase protease activity (matriptase) | trypsin protease activity (trypsin) | furin protease activity (furin [2]) | cathepsin L protease activity (cathepsin L) | elastase protease activity [3] | cathepsin B protease activity (cathepsin B) | TMPRSS2 protease activity (TMPRSS2) | IFNγ-mediated microglial activation (inflammation) [4] | IFNγ-mediated microglial activation (inflammation) ([4]; listed as recombinant AAT) | MERS-CoV pseudovirus entry [5] | PC1 protease activity (PC1) | inhibitory effect on SARS-CoV-2 spike mediated cell fusion [6] | inhibitory effect on SARS-CoV-2 pseudoviral cell-entry [7]
Alpha1-antitrypsin Portland | strong and selective activity |  |  |  |  |  |  |  |  |  |  |  |  | 
rhAAT |  | inhibits matriptase protease activity | inhibits trypsin protease activity | inhibits furin protease activity | inhibits cathepsin L protease activity | inhibits elastase protease activity | inhibits cathepsin B protease activity | inhibits TMPRSS2 protease activity | reduces inflammation | Effect is observed | inhibits viral entry of several viruses | inhibits PC1 protease activity | more effectively than plasma derived AAT | 
plasma derived AAT |  |  |  |  |  |  |  |  | Effect is observed |  |  |  |  | up to 25%
